From the nanobody polyreactivity screen of Harvey et al. (2022) come the findings set out here.

A short description of the series: yeast display, Sf9 membrane polyspecificity reagent, FACS + sequencing; frameworks hold sequencing errors. The method, boiled down: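 After 36–48 hours of galactose induction, yeast (Saccharomyces cerevisiae BJ5465) displaying a synthetic nanobody library were stained at 4 °C for 1 hour with 10% biotinylated, detergent-solubilized Sf9 membrane reagent. Streptavidin microbeads enriched the stained cells before FACS sorting into low and high (top ~1%) gates on anti-HA and streptavidin fluorescence. Each clone's polyreactivity label reflects its gate of origin.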
In the case of “QVQLVESGGVLVQAGGSLRLSCAASGRIFPYYAMGWYRQAPGKEREMVAAINSGGSTYYADSVKGRFTISRDNAKNTVYLQMNSLKPEDTAVYYCNADVLFEDGFFWDDYWGQGTQVTVSS”, the “polyreactivity (PSR sort gate)” value is reported as “low polyreactivity”.
On to “QVQLVESGGGLVQAGGSLRLSCAASGRIFDIYTMGWYRQAPGKERELVASITKRGGSTYYADSVKGRFTISRDNAKNTVYLQMNSLKPEDTAVYYCNVAGKQKPYYVTTRLDYWGQGTQVTVSS”, for which the “polyreactivity (PSR sort gate)” value is reported as “high polyreactivity”.
The entry for “QVQLEESGGGLVQAGGSLSLSCAASGSIFYGYAMGWYRQAPGKERELVAAITSGGRTYYADSVKGRFTISRDNAKNTVYLQMNSLKPEDTAVYYCNAVYRKTSYGYWGQGTQVTVSS” is “high polyreactivity”; for “QVQLVESGGGLVQAGGSLRLSCAASGRPFRGYAMGWYRQAPGKDRELVAAITRSGGSTYYADSVKGRFTISRDNAKNTVYVQMTSLKPEDTAVSYCNAVRHAQSRWPYGYWGQGTQVTVSS” it is “high polyreactivity”.
As for “QVQLVESGGGLVQAGGSLRLSCAASGRIFGSYAMGWYRQAPGKERELVAAISGDGDSTYYADSVKGRFTISRDNAKNTVYFQMNSLKPEDTAVYYCAAEPNVYFSVFVLFPSDYWGQGTQVTVSS”, the “polyreactivity (PSR sort gate)” value is “low polyreactivity”.
As for “QVQLVESGGGLVQAGGSLRLSCAASGSARYAMGWYRQAPGKERELVAAISRRGGSTFYADSVKGRFTISRDNAKNTVYLQMHSLKPEDTAVYYCAADGRISYDYWGQGTQVTVSS”, the “polyreactivity (PSR sort gate)” value is reported as “low polyreactivity”.
As for “QVQLVESGGGLVQAGGSRRLSCAASGSTFRRYAMGWSRQAPWKERELVAAISGRGGSTSYADSVKGRFTISRDNAKNTVYLQMNSLKPEDTAVYYCNARGYPSRFKYYYWGEGTQVTVSS”, the “polyreactivity (PSR sort gate)” value is on record as “high polyreactivity”.
In the case of “QDQLVESGGGLVQAGGSLRLSCAASGSIFVRYAMGWYRQAPGKERELVAAITSSAGYTYYADSVKGRFTISRDNAKNTVNLQMNSLKPEDTAVYYCAAVRYDASKFYYWGAGTQVTVSS”, the “polyreactivity (PSR sort gate)” value is reported as “high polyreactivity”.
In the case of “QVQLVESGRGLVQAGGSLRLSCAASGFTFYRYAMGWYRQAPGKERELVATISASGGSTYYADSVKGRFTISRDNAKNTVYLQMNSLKPVDTAVFYCARYIYRSAFDYWGQGTQVTVSS”, the “polyreactivity (PSR sort gate)” value was “high polyreactivity”.
On to “QVQLVESGGGLVQAGGSLRLSCAASGSTYYYYAMGWYRQAPGKERELVASIRSGGNTNYADSVKGRFTISRDNAKNTVYLQMKSLIPEDTAVYYCASRYMGSYSGGNYWGQVTQVTVSS”, for which the “polyreactivity (PSR sort gate)” value was “low polyreactivity”.
On to “QVQLVESGGGLVQAGGSLRLSCAASGSIFETYDMGWYRQAPGKERELVAAITLSGGSTYYADSVKGRFTISRDNAKNTVYLQMNSLKPEDTAVYYCAADDSGVKVWEGDYWGQGTQVTVSS”, for which the “polyreactivity (PSR sort gate)” value is on record as “low polyreactivity”.
On to “QVKLVESGGGLVQAGGSLRLSCAASGFTFYTYAMGWYRQAPGKETELFAAITGSGGRTYYADSVKGRFTISRDNAKNTVYLKMHSLKPEYTSLYYCAALYVYRPRTPYGYWGQGTQVTVSS”, for which the “polyreactivity (PSR sort gate)” value is on record as “high polyreactivity”.
As for “QVQLVESGGRLVQAGGSLRLSCAASGYIFDWNAMGWYRQAPGKERELVAAISSGGRTNYADSVKGRFTISRDNAKITVYLQMNSLKPEDTAVYYCAAVYTDPYVEYDYWGQGTQVTVSS”, the “polyreactivity (PSR sort gate)” value was “low polyreactivity”.
Under “QFQLVESGGGLVQAGGSLRLSCAASGSTFTANAMGWYRQSPGKERELVAAITNSDGSTYYADSVKGRFTISRDNAKNTVYLQMNSLKPEDTAVYYCAKDYYACYWEMDYWGQGTQVTVSS” stands “low polyreactivity”; under “QVQLVESGGGLVQAGGSLRLSCAASGHIFSYYAMGWYRQAPGKERELVAAISSSGSSTYYADSVKGRFTISRDNAKNTVYLQMNSLKPEDTAVYYCNAPYIAWYDGDYWGQGTQVTVSS”, “low polyreactivity”; under “QVQLVESGGGLVQAGASLRLSCAASGGIFYVYDMGWYRQAPGKERELVAVITFTGGSTYYADSVKGRYTISRDNAKNSVYFQKNRLKPEDTAVYYCAADAYQSAYSGEYDVYTEYDYWGQGTQVTVSS”, “low polyreactivity”.
Consider “QVQLVESGGGLVQAGGSLRLSCAASGSTFRYNAMGWYRQAPGKERELVATITSGGYTNYADSVKGRFTISRDNAKNSVYLQMNSLKPVDSAVYYCATDSLFRTYVEWDRKFDYWGQGTQVTVSS”, for which the “polyreactivity (PSR sort gate)” value was “high polyreactivity”.
Turning to “QVQLVESGGGLVQAGGSLRLSCAASGRIFSAYVMGWNRQAPGKERELVAAISSGGTRTSYADSVKGRFTISRDNAKNTVYLQMNSLTPEDTAVYYCAAARFYRSAYGYWGQGTQVTVSS”, the “polyreactivity (PSR sort gate)” value is recorded as “high polyreactivity”.
Under “QVQLVESGGGLVQAGGSLRLSCAASGSIFRSNAMGWYRPAPGKERELVAAISRRGGSTYYADSVKGRFTISRDNAKNPVYLQMNSLKPEDTAVYYCAAPTIVSGHDSWGQGTQVTVSS” stands “high polyreactivity”; under “QVQLVESGGGLVQAGGSLSLSCGASGRIFSLYAMGWYRQAPGKERELVAAMSWGAGSTYYADSVKGRFTISRDNAKNTVYLQMNSLKREATAVYYCATGRRYYYPYASYLKYGYWGQGTQVTVSS”, “high polyreactivity”.
“QVQLQESGGGLVQAGGSLRLSCAASGYISLAQTKGWYRQEPGKEREFVASIALGSSTYYTDSVKGSFTISRDNAKTTVYLQMNSVKPEDTAVYYCAARVGASYAHDFWGQGTQVTVSS”: the “polyreactivity (PSR sort gate)” value is on record as “low polyreactivity”.
For “QVQLVESGGGLVQAGGSLRLSCAASGSIFAGNAMGWYRQAPGKERELVAAISRRGGSTYYADSVKGRFTISRDNAKNTVYLQMNSLKPEDTAVYYCAAANWQRYYYWGQGTQVTVSS”, the “polyreactivity (PSR sort gate)” value is “high polyreactivity”.
On to “QVQLVESGGGLVQAGGSLRLSCAASGRTFYIYAMGWYRQAPGKERELVATIDSTGSTNYADSVKGRFTISRDNAKNTVYLQMNSLKPEDTAVYYCNADDWVGRSLRYDYWGQGTQVTVSS”, for which the “polyreactivity (PSR sort gate)” value is given as “low polyreactivity”.
With “QVQLVESGGGLVQAGGSLRLSCAASGFTFGVYAMGWYRQAPGKERELVAAITATGGSTYYADSVKGRFTISRDNAKNTVYLQMNSLKPADTEVYYCAKPDYYRMGYWVQGTQVTVSS”, the “polyreactivity (PSR sort gate)” value is “low polyreactivity”.
Under “QVQLVESGGGLVQAGGSLRLSFAASGRTFYIYAMGLYRQDPGKEREMVAAITYGGGRTFYADSVKGRFTISRDNAKYTVYLQMNSLKPEDTAVYYCAKTDTYPRYGRGYDYWGQGTQVTVSS” stands “high polyreactivity”; under “QVQLVESGGGLVQAGGSLRLSCAASGSIFRYYAMGWYRQAPGKERELVAVITRGGSTYYADSVKGRFTISRDNAKNTVYLQMNSLKPEDTAVYYCAADYWPACMDRGYWGQATQVTVSS”, “low polyreactivity”; under “QVQLVESGGGLVQAGGSLRLSCAASGFTFALYAMGWYRQAPGKERELVAAITSGGSTNYADSVKGRFTISRDNAKNTVYLLMNSLKPEDTAVYYCAAVPYYRYYSLKGRNNYNYWGQGTQVTVSS”, “high polyreactivity”.
The entry for “QVQLVESGGGLVQAGGSLRLSCAASGFIFFINDMGWYRQAPGTERELVAAISWSGGSTYYADSVKGRFTISRDNAKNTVYLQMNSLKPEDTAVYYCNTDVPTAQYDYWGQGTQVTVSS” is “low polyreactivity”.
As to “QVQLVESGGGLVQARGSLRLSCAASGSIFDFYAMGWYRQAPGKERELVAAISGSGGSTYYADSVKARFTISRDNAKNNGYLQMISLKPDDTAVYYCSYYYWGQGTQVTVSS”, the “polyreactivity (PSR sort gate)” value is recorded as “low polyreactivity”.
With “QVQLVESGGGLVQAGGSLRLSCAASGLIFYFNAMGWYRQAPGKERELVASITRTGSTNYADSVKGRFTISRDNAKNTVYLQMNSLKAEDTAVYYCAAYGPVYPHEYDYWGHGTQVTVSS”, the “polyreactivity (PSR sort gate)” value is “low polyreactivity”.
As to “QVQLVESGVGLVQAGGSLRLSCAASGSTFRGYAMGWYRQAPGKERELVAAISSSGGRTYYAYSVKGRFTISRDNAKNTVYLQMNSLKPEDTAVYYCNAASKNSVRYAYQNYDYWGQGTQVTVSS”, the “polyreactivity (PSR sort gate)” value is on record as “high polyreactivity”.
With “QVQLVESGGGIVHAGGSLRLSCAASGFIFDTNAMGWYRQAPGKEREMVAAITNDDSTNYADSVKGRFTISRDNAKTTVYLQMNSLKPEDTSVYYCAAYYIAQVVWPTTFHQQEYDYWGQGSQVTVSS”, the “polyreactivity (PSR sort gate)” value is “low polyreactivity”.
Regarding “KVQVVESGGCLVQAGGSLRLSCAASGFSFGGYAMGCYRQAPGKDRELVAAINYRGGSTNYADSVKGRFTISRDNAKNTVYFQMNSLKPEDTAVYYCAASYFYWRANRGPRYYWGQGTQVTVSS”, the “polyreactivity (PSR sort gate)” value was “high polyreactivity”.
On to “QGQLVDSGGGLVQAGGSLRLSCAASGSTFKNNAMGWYRQAPGKEREFVASISKRGGSTYYADSVKGRFTISRDNAKNTVYLQMNSMKPEDTAVYYCAKTYWSYGLSHGDYGEFDYWGQGTQVTVSS”, for which the “polyreactivity (PSR sort gate)” value is “high polyreactivity”.
On to “QVQLVESGGGLVQAGGSLRLSCAASGSTFGRNAMGWYRQAPGKERELVAAITASGGTTYYADSVKGRFTISRDNAKNTVYLQMNSLKPEDTAVYYCARAGHFSFKDDYWGQGTQVTVSS”, for which the “polyreactivity (PSR sort gate)” value is recorded as “low polyreactivity”.
In the case of “QVQLVESGGGLDQAGGRLRLICAASGNTFRFYTLGWYRQAPGQETEFVAAINSSGRTNYADSVKGRFTISRDNATNTVYLQMNSLKPEDTAVYYCAADYYQRSTFLGVDEYDYWGQGTQVTVSS”, the “polyreactivity (PSR sort gate)” value is listed as “low polyreactivity”.
Consider “QVQLVESGGGLVQAGGSLRLSCAASGFIFYAYAMGWYRQAPGKERELVAGISDSGASTYADSVKGRFTISRDNAKNTVYLQMNSLKPEDTAVYYCATTGYLSTKVYDEYGYWGQGTQVTVSS”, for which the “polyreactivity (PSR sort gate)” value is “low polyreactivity”.
Consider “QVQLVESAGGIDQAGGRLRLSSAASGGIFTPYAMGCYRQAPGKDRELVATISSDGSTNYADSVKGRFTISRDNAKNTVYLQMNSLKPEDTAVYYCNIDRHKVAGTLPGWWYDYLGQGTQVTVSS”, for which the “polyreactivity (PSR sort gate)” value is on record as “low polyreactivity”.
Under “QVQLVESGGGLVQAGGSLRLSCAASGSTFEFNDMGWYRQAPGKERELVASIRHSDGSTYYADSVKGRFTISRDNAKNTVYLQMNSLKPEDTAVYYCNKAFQWSGGQVSYDYWGQGTQVTVSS” stands “low polyreactivity”; under “QVQLVESGGGLVQAGGSLRLSCAASGRILYYYAMGWYRQAPGKERELVAAINSSGGSTYYADSVKGRFTISRDNAKNTVYLQMNSLKPEDTAVYYCAAVRSKLYYYWGQGTQVTVSS”, “high polyreactivity”; under “QVQLVESGGGLVQAGGILRLTCAASGRIFIYYAMGWYRQAPGKERELVAAISWGGGRTYYADSVKGRFTISRDNAKNTVYLQMNSLKPEDTAVYNCAAGVYTGQHEYDYWGQGTQVTVSS”, “low polyreactivity”.
